# Test results: patent US6984772
# Legend:
# [1] = target: Recombinant human fibrinogen from the milk of transgenic mice (UniProt P02671)
# [2] = target: Plasma derived human fibrinogen (reference protein) (UniProt P02671)
substance,measurement,setting,value
Human thrombin,"clot formation after thrombin, 4 U/ml, 37 C, 24 hours",[1],Cloudy clot-like precipitates were clearly visible in TG (pellet-2)
same,"clot formation after thrombin, 4 U/ml, 37 C, 24 hours",[2],Cloudy clot-like precipitates were clearly visible in ... hFIB-spiked NTG (pellet-2)
